Reference: patent CN116640216A

Target: CD19-CD22 CAR(CD19-CD22双靶点CAR-T细胞表面表达的CD19-CD22 scFv)
Assay: flow cytometry on CD19-CD22 CAR-T cells, positive control tube

CAR阳性百分率: 31.6%
Substance: Alexa Fluor®647荧光标记的抗鼠F(ab')2抗体(Jackson ImmunoResearch Laboratories，货号#115-605-072) (antibody)
